In patent US20130252282A1:
Values belong to the substance of their own block, whether it stands above or below them.

Assays:
Cdc42 = Cdc42 (UniProt P60766); test: cell-based or functional assay
[1] = molecular target: Dronpa145N (Pectimidae genus coral); test: inferred from native PAGE of 100 µM protein after cyan (about 500 nm) illumination; self-association, off-photoswitched state

UniProt P60766, sequence (P60766 1-188 limits assumed): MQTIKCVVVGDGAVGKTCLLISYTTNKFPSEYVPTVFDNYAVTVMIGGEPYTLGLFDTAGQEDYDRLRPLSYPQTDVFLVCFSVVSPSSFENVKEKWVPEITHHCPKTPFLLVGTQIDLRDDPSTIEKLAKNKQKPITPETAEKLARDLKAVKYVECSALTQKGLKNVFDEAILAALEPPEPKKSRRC

basal filopodia or lamellipodia in low expressers (Cdc42): 0%
Substance: N-I-N-CAAX (Dronpa145N-intersectin DH domain-Dronpa145N-CAAX) (from UniProt Q15811 1234-1428)

basal filopodia or lamellipodia in low expressers (Cdc42): 8%
cells forming abundant filopodia within 30 minutes after illumination (Cdc42): 90%
cells forming filopodia, not exposed to light (Cdc42): 25%
Substance: K-I-N-CAAX (Dronpa145K-intersectin DH domain-Dronpa145N-CAAX) (from UniProt Q15811 1234-1428) (enzyme)

Kd [1]: > 100 µM
Substance: Dronpa145N

cells forming abundant filopodia within 30 minutes after 490/20-nm light for 30 seconds (Cdc42): 78%
cells forming filopodia in the same time interval without illumination (Cdc42): 10%
Substance: N-I-N-CAAX (Dronpa145N-intersectin DH domain-Dronpa145N-CAAX) (from UniProt Q15811 1234-1428) (enzyme)
